For orientation: kon means the rate constant with which the complex forms. The low end stands for slow association, the high end for fast association. As usually defined, the Kd is a measure of binding affinity in units of concentration. Low readings indicate higher affinity, high ones lower affinity. Usually koff stands for a measure of how fast the partners let go of each other.

The target of assay [1] is T1, human VEGF-A residues 27-191 of Accession #AAV38412 (human, UniProt P15692 27-191).
T1 construct: range 27-191
T1 sequence (P15692 other isoform, or with tags, fused parts or gaps limits assumed): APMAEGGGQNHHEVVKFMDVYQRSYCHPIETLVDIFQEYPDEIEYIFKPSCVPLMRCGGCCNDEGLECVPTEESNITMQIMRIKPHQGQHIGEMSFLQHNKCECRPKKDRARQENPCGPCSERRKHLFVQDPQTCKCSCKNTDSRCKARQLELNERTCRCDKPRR
The assay can be described thus: BIAcore SPR. In general terms: SPR reads the build-up and loss of mass on a sensor chip optically.

The target of assay [2] is T2, unlabeled human VEGF (ELISA coat) (human, UniProt P15692-4 27-191, limits assumed). The assay can be described thus: ELISA on coated human VEGF, overnight assay, against bevacizumab (WT). On the procedure: (§1) Corresponding variants in DVD-Ig format were analyzed for binding kinetics by BIAcore only.
T2 sequence (P15692 other isoform, or with tags, fused parts or gaps limits assumed): as above
(§2) To detect identified variants binding to antigen, ELISA plates (Nunc-Immuno MaxiSorp plates, Nalge Nunc, Rochester, N.Y.) were coated overnight at 4° C. with unlabeled human VEGF at 1 μg/mL in 0.2 M sodium carbonate-bicarbonate buffer (pH 9.4, Pierce, Rockford, Ill.). The plates were then blocked with SuperBlock Blocking Buffer (Pierce, Rockford, Ill.) for 30 min and washed with Washing Buffer (PBS containing 0.1% Tween 20). All the washing steps were performed for three times. […] The plates were washed and 100 μL of goat anti-human kappa HRP-conjugated antibody (Southern Biotech, Birmingham, Ala.) diluted at 1:1000 in ELISA buffer was added to each well. After 30 minutes of incubation, plates were washed and bound antibodies were detected by addition of TMB 1 Component HRP Microwell substrate (BioFx #TMBW-1000-01). The reaction was terminated by addition of 100 μL/well of 650 nM Stop Reagent for TMB Microwell substrate and the absorbance was measured at 650 nm using a VERSAmax microplate reader (Molecular Devices, Sunnyvale, Calif.). Data were fitted using nonlinear regression with the software […]
In general terms: ELISA stands for enzyme-linked immunosorbent assay.

The target of assay [3] is T2, unlabeled human VEGF (ELISA coat). As to the kind of experiment: ELISA on coated human VEGF, 1 hr incubation, against bevacizumab (WT). On the procedure: as §1, §2
The target in assay [4] is T1, human VEGF-A residues 27-191 of …. As to the kind of experiment: BIAcore SPR; kd of this row is at the detection limit. The procedure:
(§3) The binding kinetics and affinity of the antibodies for VEGF (human VEGF-A residues 27-191 of Accession #AAV38412) was determined by using a BIAcore T200 surface plasmon resonance system (BIAcore, GE Healthcare, Piscataway, N.J.). Coupling running buffer was HBS-EP+ running buffer (10 mM HEPES, 150 mM sodium chloride, 3 mM EDTA 0.05% P-20, pH 7.4); assay running buffer was HBS-EP+ with 300 mM sodium chloride and 0.1 mg/mL BSA (Sigma A7906). Polyclonal goat anti-human Fc (Thermo Scientific prod#31125) was first immobilized to the biosensor surface in 10 mM sodium acetate, pH 4.5 using standard BIAcore amine coupling reagents (N-ethyl-N′-dimethylamino-propylcarbodiimide, EDC; N-hydroxysuccinimide, NHS; and ethanolamine HCl, pH 8.5). For binding kinetics assay a series of cycles were performed, each cycle consisted of 1) mAb capture, 2) Ag or buffer injection, 3) dissociation phase and 4) regeneration. Briefly, anti-VEGF antibodies were captured on parallel surfaces at a low flow rate of 10 μL/min. Capture levels were kept low to minimize avidity due to the dimeric nature of VEGF. No capture of the antibody was made on the reference surface to serve for primary referencing and as a negative control. […]

The target is the same in assay [5]. As to the kind of experiment: BIAcore SPR; * detection limit. On the procedure:
as §3

The target is the same in assay [6]. As to the kind of experiment: BIAcore SPR, KD WT/KD mutant.
Assay [7] deals with T3, VEGF (R&D systems, Minneapolis, Minn.) (UniProt P15692-4 27-191, limits assumed). The assay can be described thus: BIAcore SPR. On the procedure:
(§4) RL was kept low to minimize avidity due to the dimeric nature of VEGF. No capture of the antibody was made on the reference surface to serve as a negative control. Subsequently, VEGF was injected to all flow cells at a flow rate of 50 μL/min for two minutes to monitor association followed by a 25-minute flow of HBS-P running buffer (10 mM HEPES, 150 mM sodium chloride, 0.005% P-20, pH 7.4) to monitor the dissociation phase. At each cycle, VEGF, in 6 different concentrations of VEGF ranging between 0 nM and 512 nM and at four-fold increments, was injected over the surface. […] Binding data were fit to the 1:1 Langmuir model to extract binding constants from the BIAevaluate software. Double referencing was applied in each analysis to eliminate background responses from the reference surface and buffer only control. All the binding kinetics data were analyzed at least three separate determinations.

Assay [8] deals with T3, VEGF (R&D systems, Minneapolis, Minn.). The assay can be described thus: BIAcore SPR, WT/mutant. The procedure: as §4
The target is the same in assay [9]. As to the kind of experiment: BIAcore SPR, improvement over WT. On the procedure: as §4
Assay [10] shares this target. The assay can be described thus: SPR (BIAcore 2000/3000), antibody captured by anti-human Fc, VEGF as analyte, 1:1 Langmuir fit; variant corresponding to SEQ ID NO:82, the best of the variants. On the procedure: as §4
Assay [11] shares this target. As to the kind of experiment: BIAcore SPR, mutant/WT. On the procedure:
as §4

Positions count from the first letter of the chain named. In names and notes the source's numbering stands. Where only a bound is given, the exact number is not on record here.

T3 sequence (P15692 other isoform, or with tags, fused parts or gaps limits assumed): as above

B1: bevacizumab variant H97Y (IgG format) (antibody, name in Kabat numbering, V domains shown)
VH: EVQLVESGGGLVQPGGSLRLSCAASGYTFTNYGMNWVRQAPGKGLEWVGWINTYTGEPTYAADFKRRFTFSLDTSKSTAYLQMNSLRAEDTAVYYCAKYPYYYGSSHWYFDVWGQGTLVTVSS
VL: DIQMTQSPSSLSASVGDRVTITCSASQDISNYLNWYQQKPGKAPKVLIYFTSSLHSGVPSRFSGSGSGTDFTLTISSLQPEDFATYYCQQYSTVPWTFGQGTKVEIKR
notes: IgG format; also called H97Y substitution
B1 yielded a kon in assay [1] of 41200 M⁻¹ s⁻¹. Besides, the “fold over WT (EC50 wild type/EC50 mutant), overnight assay” value in assay [2] stood at 9.3 fold. Moreover, in assay [3], the “fold over WT (EC50 wild type/EC50 mutant), 1-hour assay” value turned out to be 2.6 fold. The same molecule gave a Kd in assay [4] of at most 243 pM. The same molecule returned a koff in [5] of at most 1e-05 s⁻¹. The affinity improvement in assay [6] is 1.8 fold.

B2: bevacizumab variant corresponding to SEQ ID NO:82 (antibody, V domains shown)
VH: B1 VH with N31F, Y101D, Y103D, S105G
VL: B1 VL
As for B2, in assay [7], binding was characterised by a dissociation constant (Kd) of 82.7 pM, the off-rate (koff) stood at 0.000172 s⁻¹ and the kon worked out at 2.08e+06 M⁻¹ s⁻¹. The molecule further showed a Δkoff in [8] of 2 fold. The ΔKD in assay [9] was 23.8 fold. In assay [10], this molecule registered a Kd of 80 pM. The molecule further yielded a Δkon in assay [11] of 11.6 fold.

Source of the values: patent US20140154255A1 (AbbVie / Abbott, published 2014).
